Experiments:
COS7 cells = experiment: MTT assay, COS7 cells; type: cell-based
U87 GBM cells = experiment: MTT survival assay, U87 GBM cells; type: cell-based
Experimental: (§1) The DBTRG-O5MG (Denver Brain Tumor Research Group 05) cell line was established from tissue from a patient with glioblastoma multiforme who had been treated with local brain irradiation and multi drug chemotherapy (Kruse C A, et al. 1992 In vitro Cell Dev Biol, 28A(9-10):609-14). U87 is a commonly studied and thoroughly characterized grade IV glioma cell line derived from malignant glioma (Clark M J, et al, 2010 Plos Genet. 6(1):e1000832.). T98G is a glioblastoma multiforme cell line extracted from a person (Stein G H, 1979, J. Cell Physiol, 99(1):43-54). Proliferation and survival were assessed following TAT-ICD or control peptide (Table 29) or the P1-WD or control peptide treatment using the MTT assay as described above. Data are relative absorption; mean and standard deviation.

bEnd3 endothelial cells = experiment: MTT assay, bEnd3 endothelial cells; type: cell-based
[1] = system: normal primary cortical murine neurons; experiment: MTT assay, normal primary cortical neurons; type: cell-based, mouse
Experimental: Briefly, U251 GBM cells, normal primary cortical murine neurons and a mixed culture of murine microglia and astrocytes were treated for 24, 48 and 72 hours with no treatment (control), delivery peptide (P1 or TAT) or increasing concentrations of P1-WD or TAT-ICD. Cell viability and survival was measured using the MTT assay, a colorimetric assay for assessing cell metabolic activity set up under conditions where the absorption reflects the number of viable cells present (Table 21 and 22) and expressed as relative absorption at 570 nm. Early apoptosis was measured using VYBRANT DyeCycle Violet stain (Molecular Probes), a DNA-selective, cell membrane-permeant dye that can distinguish the compacted state of the nuclear chromatin in apoptotic cells as determined by flow cytometry and presented as the percent of cells that are apoptotic (Table 23 and 24). The actual number of cells following treatment with TAT-ICD or TAT alone (Table 25) was determined using flow cytometry compared to an input of 5,000 cells at time zero. To confirm apoptosis the TUNEL labeling assay, which detects DNA strand breaks in apoptotic cells by fluorescence microscopy, was also used to examine U251 cells treated with the PTPRG WD. Briefly, the assay used an optimized terminal transferase ([…]) to label 3′OH ends in genomic DNA with TMR-dUTP, thus allowing the measurement and quantification of cell death by apoptosis. U251 cells were pretreated for 1, 3 and 6 hours with 50 μM P1-WD. Then cells were fixed and permeabilized, incubated with TUNEL reaction mixture for 1 h at RT, and then stained with DAPI (for nuclei detection) and with Alexa670-Phalloidin (to detect actin in cell membranes). After the staining steps, cells were visualized with a confocal microscope.
In striking contrast, treatment of normal primary cortical neurons isolated from mouse pups treated with TAT alone or TAT-ICD for 24-72 hours (Table 26) are mean and sd of absorption using the MTT assay as described above.

DBTRG GBM cells [2] = experiment: MTT survival assay, DBTRG GBM cells; type: cell-based, human
Experimental: as §1

DBTRG GBM cells [3] = experiment: VYBRANT early apoptosis, DBTRG GBM cells; type: cell-based, human; settings: 0.5 μM
[4] = 0.25 uM, 24 hours, Control 1116
[5] = 0.25 uM, 48 hours, Control 1022

With “TAT (GRKKRRQRRRPPQ; listed as Homo sapiens) [reference compound]” the “mean absorbance in the MTT assay” value (COS7 cells; 0.1 μM, 24 hours, CTRL 700) was 649, the “mean absorbance in the MTT assay” value (COS7 cells; 0.1 μM, 48 hours, CTRL 1267) was 1320 and the “mean absorbance in the MTT assay” value (COS7 cells; 0.1 μM, 72 hours, CTRL 1500) was 1495. For the same substance, the “mean absorbance in the MTT assay” value (COS7 cells; 0.25 μM, 24 hours, CTRL 700) was 624, the “mean absorbance in the MTT assay” value (COS7 cells; 0.25 μM, 48 hours, CTRL 1267) was 1250 and the “mean absorbance in the MTT assay” value (COS7 cells; 0.25 μM, 72 hours, CTRL 1500) was 1388. For the same substance, the “mean absorbance in the MTT assay” value (COS7 cells; 0.5 μM, 24 hours, CTRL 700) was 650, the “mean absorbance in the MTT assay” value (COS7 cells; 0.5 μM, 48 hours, CTRL 1267) was 1289 and the “mean absorbance in the MTT assay” value (COS7 cells; 0.5 μM, 72 hours, CTRL 1500) was 1341. For the same substance, the MTT relative absorption (U87 GBM cells; 0.1 μM, 24 hours, CTRL 1200) was 1200, the MTT relative absorption (U87 GBM cells; 0.1 μM, 48 hours, CTRL 1200) was 1018 and the MTT relative absorption (U87 GBM cells; 0.1 μM, 72 hours, CTRL 1336) was 1343. It also gave an MTT relative absorption (U87 GBM cells; 0.25 μM, 24 hours, CTRL 1200) of 1195, an MTT relative absorption (U87 GBM cells; 0.25 μM, 48 hours, CTRL 1200) of 950 and an MTT relative absorption (U87 GBM cells; 0.25 μM, 72 hours, CTRL 1336) of 1200. The MTT relative absorption (U87 GBM cells; 0.5 μM, 24 hours, CTRL 1200) was 1160, the MTT relative absorption (U87 GBM cells; 0.5 μM, 48 hours, CTRL 1200) was 900 and the MTT relative absorption (U87 GBM cells; 0.5 μM, 72 hours, CTRL 1336) was 1235. For the same substance, the “mean absorbance in the MTT assay” value (bEnd3 endothelial cells; 0.1 uM, 24 hours, CTRL 352) was 354, the “mean absorbance in the MTT assay” value (bEnd3 endothelial cells; 0.1 uM, 48 hours, CTRL 523) was 503 and the “mean absorbance in the MTT assay” value (bEnd3 endothelial cells; 0.25 uM, 24 hours, CTRL 352) was 338. The “mean absorbance in the MTT assay” value (bEnd3 endothelial cells; 0.25 uM, 48 hours, CTRL 523) was 540, the “mean absorbance in the MTT assay” value (bEnd3 endothelial cells; 0.5 uM, 24 hours, CTRL 352) was 328 and the “mean absorbance in the MTT assay” value (bEnd3 endothelial cells; 0.5 uM, 48 hours, CTRL 523) was 528. For the same substance, the “absorbance in the MTT assay” value ([1]; 0.1 uM, 24 hours, Control 1116) was 1150, the “absorbance in the MTT assay” value ([1]; 0.1 uM, 48 hours, Control 1022) was 1151 and the “absorbance in the MTT assay” value ([1]; 0.1 uM, 72 hours, Control 994) was 1151. The “absorbance in the MTT assay” value [1, 4] was 908, the “absorbance in the MTT assay” value [1, 5] was 955 and the “absorbance in the MTT assay” value ([1]; 0.25 uM, 72 hours, Control 994) was 957. For the same substance, the “absorbance in the MTT assay” value ([1]; 0.5 uM, 24 hours, Control 1116) was 1184, the “absorbance in the MTT assay” value ([1]; 0.5 uM, 48 hours, Control 1022) was 1148 and the “absorbance in the MTT assay” value ([1]; 0.5 uM, 72 hours, Control 994) was 1224. The MTT relative absorption (DBTRG GBM cells [2]; 0.3 μM, 24 hours, Control 941) was 711, the MTT relative absorption (DBTRG GBM cells [2]; 0.3 μM, 48 hours, Control 1274) was 1031 and the MTT relative absorption (DBTRG GBM cells [2]; 0.3 μM, 72 hours, Control 1667) was 1583. For the same substance, the MTT relative absorption (DBTRG GBM cells [2]; 0.5 μM, 24 hours, Control 941) was 826, the MTT relative absorption (DBTRG GBM cells [2]; 0.5 μM, 48 hours, Control 1274) was 1061 and the MTT relative absorption (DBTRG GBM cells [2]; 0.5 μM, 72 hours, Control 1667) was 1591. For the same substance, the MTT relative absorption (DBTRG GBM cells [2]; 1.0 μM, 24 hours, Control 941) was 792, the MTT relative absorption (DBTRG GBM cells [2]; 1.0 μM, 48 hours, Control 1274) was 1005 and the MTT relative absorption (DBTRG GBM cells [2]; 1.0 μM, 72 hours, Control 1667) was 1275. The “percent of apoptotic cells by flow cytometry” value (shortened to “percent of apoptotic cells”) (DBTRG GBM cells [3]; 1 h, Control 14) was 10%, the “percent of apoptotic cells” value (DBTRG GBM cells [3]; 3 h, Control 16) was 10% and the “percent of apoptotic cells” value (DBTRG GBM cells [3]; 6 h, Control 33) was 7%.

“TAT-ICD: fusion recombinant protein SEQ ID 5: PTPRG intracellular domain aa 797-1445 fused to 13 aa TAT sequence” was tested, and the “mean absorbance in the MTT assay” value (COS7 cells; 0.1 μM, 24 hours, CTRL 700) was 674, the “mean absorbance in the MTT assay” value (COS7 cells; 0.1 μM, 48 hours, CTRL 1267) was 1391 and the “mean absorbance in the MTT assay” value (COS7 cells; 0.1 μM, 72 hours, CTRL 1500) was 1481. The “mean absorbance in the MTT assay” value (COS7 cells; 0.25 μM, 24 hours, CTRL 700) was 684, the “mean absorbance in the MTT assay” value (COS7 cells; 0.25 μM, 48 hours, CTRL 1267) was 1289 and the “mean absorbance in the MTT assay” value (COS7 cells; 0.25 μM, 72 hours, CTRL 1500) was 1489. For the same substance, the “mean absorbance in the MTT assay” value (COS7 cells; 0.5 μM, 24 hours, CTRL 700) was 694, the “mean absorbance in the MTT assay” value (COS7 cells; 0.5 μM, 48 hours, CTRL 1267) was 1295 and the “mean absorbance in the MTT assay” value (COS7 cells; 0.5 μM, 72 hours, CTRL 1500) was 1461. The MTT relative absorption (U87 GBM cells; 0.1 μM, 24 hours, CTRL 1200) was 1070, the MTT relative absorption (U87 GBM cells; 0.1 μM, 48 hours, CTRL 1200) was 1167 and the MTT relative absorption (U87 GBM cells; 0.1 μM, 72 hours, CTRL 1336) was 813. For the same substance, the MTT relative absorption (U87 GBM cells; 0.25 μM, 24 hours, CTRL 1200) was 1069, the MTT relative absorption (U87 GBM cells; 0.25 μM, 48 hours, CTRL 1200) was 1062 and the MTT relative absorption (U87 GBM cells; 0.25 μM, 72 hours, CTRL 1336) was 650. The MTT relative absorption (U87 GBM cells; 0.5 μM, 24 hours, CTRL 1200) was 1000, the MTT relative absorption (U87 GBM cells; 0.5 μM, 48 hours, CTRL 1200) was 977 and the MTT relative absorption (U87 GBM cells; 0.5 μM, 72 hours, CTRL 1336) was 650. For the same substance, the “mean absorbance in the MTT assay” value (bEnd3 endothelial cells; 0.1 uM, 24 hours, CTRL 352) was 373, the “mean absorbance in the MTT assay” value (bEnd3 endothelial cells; 0.1 uM, 48 hours, CTRL 523) was 513 and the “mean absorbance in the MTT assay” value (bEnd3 endothelial cells; 0.25 uM, 24 hours, CTRL 352) was 378. The “mean absorbance in the MTT assay” value (bEnd3 endothelial cells; 0.25 uM, 48 hours, CTRL 523) was 579, the “mean absorbance in the MTT assay” value (bEnd3 endothelial cells; 0.5 uM, 24 hours, CTRL 352) was 393 and the “mean absorbance in the MTT assay” value (bEnd3 endothelial cells; 0.5 uM, 48 hours, CTRL 523) was 545. The “absorbance in the MTT assay” value ([1]; 0.1 uM, 24 hours, Control 1116) was 1115, the “absorbance in the MTT assay” value ([1]; 0.1 uM, 48 hours, Control 1022) was 989 and the “absorbance in the MTT assay” value ([1]; 0.1 uM, 72 hours, Control 994) was 1074. The “absorbance in the MTT assay” value [1, 4] was 928, the “absorbance in the MTT assay” value [1, 5] was 923 and the “absorbance in the MTT assay” value ([1]; 0.25 uM, 72 hours, Control 994) was 1204. For the same substance, the “absorbance in the MTT assay” value ([1]; 0.5 uM, 24 hours, Control 1116) was 1164, the “absorbance in the MTT assay” value ([1]; 0.5 uM, 48 hours, Control 1022) was 1109 and the “absorbance in the MTT assay” value ([1]; 0.5 uM, 72 hours, Control 994) was 1376. The MTT relative absorption (DBTRG GBM cells [2]; 0.3 μM, 24 hours, Control 941) was 772, the MTT relative absorption (DBTRG GBM cells [2]; 0.3 μM, 48 hours, Control 1274) was 770 and the MTT relative absorption (DBTRG GBM cells [2]; 0.3 μM, 72 hours, Control 1667) was 1243. The MTT relative absorption (DBTRG GBM cells [2]; 0.5 μM, 24 hours, Control 941) was 773, the MTT relative absorption (DBTRG GBM cells [2]; 0.5 μM, 48 hours, Control 1274) was 623 and the MTT relative absorption (DBTRG GBM cells [2]; 0.5 μM, 72 hours, Control 1667) was 1022. It also gave an MTT relative absorption (DBTRG GBM cells [2]; 1.0 μM, 24 hours, Control 941) of 669, an MTT relative absorption (DBTRG GBM cells [2]; 1.0 μM, 48 hours, Control 1274) of 577 and an MTT relative absorption (DBTRG GBM cells [2]; 1.0 μM, 72 hours, Control 1667) of 712. The “percent of apoptotic cells” value (DBTRG GBM cells [3]; 1 h, Control 14) was 25%, the “percent of apoptotic cells” value (DBTRG GBM cells [3]; 3 h, Control 16) was 40% and the “percent of apoptotic cells” value (DBTRG GBM cells [3]; 6 h, Control 33) was 70%.

From patent US10898548B2, “Modulators of protein tyrosine phosphatase and uses thereof” (LEUVAS THERAPEUTICS, priority 2015, dated 2021)
